This passage reports self-cleavage results from the RNAGym collection of RNA variant scans (doi:10.1093/nar/gkz1192).

To fix the notation:
B1: CPEB3 Ribozyme (parent)
chain: UAACAGGGGGCCACAGCAGAAGCGUUCACGUCGCAGCCCCUGUCAGAUUCUGGUGAAUCUGCGAAUUCUGCUGUAUAUCUC

Variants of B1 are the subject of this series. The experiment in a line: self-cleavage, relative activity (ratio to wild type); higher = more cleavage; in vitro, sequencing. The procedure, abridged:
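For each CPEB3 ribozyme variant, relative activity is its cleaved/total read fraction divided by the unmutated ribozyme's. Barcoded error-prone PCR libraries were transcribed by T7 RNA polymerase (5 hours, 37°C) and held in DNase I for 15 min before an EDTA stop, with cleavage occurring throughout. Template-switching reverse transcription and Illumina sequencing were used to read the RNAs. A 5-read minimum applied, and results are the mean of three batches.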
For the variant G9C C44U, the self-cleavage amounted to 0.18. On to G8U A77U, for which the self-cleavage amounted to 0.14. G9A A20C: the self-cleavage is 0.39.

On to G9A A20U, for which the self-cleavage was 0.43. As to G9A A20G, the self-cleavage came to 0.37.

G8U U58C: the self-cleavage worked out at 0.1. The figure for G8U U58A is 0.32; for G9A A56U it is 0.23.

In the case of G9A A56C, the self-cleavage came to 0.24.

In the case of G9A A56G, the self-cleavage came out at 0.18. As to G8U, the self-cleavage was determined as 0.23. Regarding G8C, the self-cleavage was determined as 0.27.

Consider G9A C79U, for which the self-cleavage came out at 0.16. For G8U A15G, the self-cleavage amounted to 0.24. Regarding G8U A15U, the self-cleavage turned out to be 0.4. For G9U A45U, the self-cleavage came out at 0.04. With G9U A45C, the self-cleavage was determined as 0.05. To G9U A45G belongs 0.11. Turning to G8C U67C, the self-cleavage is 0.15. On to G8C U67G, for which the self-cleavage is 0.15. The figure for G9A G24C is 0.2; for G9A G24A it is 0.22. As to G8C U25C, the self-cleavage worked out at 0.15. For the variant G9C U58G, the self-cleavage amounted to 0.06.

Take G8C U51A: the self-cleavage is 0.12. For the variant G8C U69C, the self-cleavage came out at 0.22. Take G8C G33A: the self-cleavage was found to be 0.06. In the case of G9U C37U, the self-cleavage amounted to 0.07.

For G8U U54A, the self-cleavage worked out at 0.07. In the case of G8U U54C, the self-cleavage was 0.14.

Regarding G9U A77U, the self-cleavage was found to be 0.16. Regarding G8C U80G, the self-cleavage turned out to be 0.24. As to G8U C62U, the self-cleavage was found to be 0.12. G9A G63A: the self-cleavage was found to be 0.12.

Take G9A G16A: the self-cleavage was found to be 0.17.

For G9U A56G, the self-cleavage came out at 0.14. Turning to G9U A56C, the self-cleavage stood at 0.29. As for G9U A56U, the self-cleavage came out at 0.29.

G9A A77C: the self-cleavage is 0.17.

In the case of G9A A77U, the self-cleavage came to 0.23. With G9A A77G, the self-cleavage stood at 0.3. G9A C23U: the self-cleavage was 0.07. For G9C A77C, the self-cleavage was determined as 0.18. To G9C G55A belongs 0.41; to G9C U74C, 0.26; to G8A U58C, 0.2.

On to G9U A20G, for which the self-cleavage is 0.34. To G8U G36A belongs 0.1; to G9U A18U, 0.2; to G9U A18C, 0.18. Take G9U A18G: the self-cleavage worked out at 0.19. In the case of G9A U76A, the self-cleavage is 0.45. The figure for G9A U76C is 0.34; for G9A U41G it is 0.26; for G9A U41A it is 0.19. As to G9A U41C, the self-cleavage amounted to 0.43. The figure for G8U U48C is 0.38; for G8U U72A it is 0.07. With G8U U72C, the self-cleavage worked out at 0.15.

On to G9A C81U, for which the self-cleavage stood at 0.35. As to G9C U43C, the self-cleavage was determined as 0.13. Regarding G9A G53A, the self-cleavage is 0.35. The figure for G9C A35G is 0.27. The figure for G8U G55U is 0.2. To G8U U76A belongs 0.28; to G8U U76C, 0.13; to G8A U66C, 0.12. With G9A C32U, the self-cleavage is 0.2. As for G8C C23A, the self-cleavage stood at 0.3. As for G9A A47G, the self-cleavage was 0.37.

With G9A A47U, the self-cleavage was 0.06.

Take G9A A35G: the self-cleavage was 0.66. Regarding G9A A35U, the self-cleavage came to 0.18. In the case of G8U A18G, the self-cleavage stood at 0.14. The figure for G8U A18U is 0.16; for G9A G10C it is 0.2; for G9A G10A it is 0.45. Consider G9A A64U, for which the self-cleavage turned out to be 0.39. On to G9A A64C, for which the self-cleavage turned out to be 0.06. For the variant G9A A64G, the self-cleavage turned out to be 0.3.

Regarding G9C A28G, the self-cleavage was found to be 0.07. As for G8U C29U, the self-cleavage amounted to 0.25. G8U A28U: the self-cleavage turned out to be 0.09. G8U A28G: the self-cleavage stood at 0.14. With G8A U69C, the self-cleavage is 0.19. Take G8A U69G: the self-cleavage was determined as 0.28.

G8A U69A: the self-cleavage is 0.28.

Consider G9C U72C, for which the self-cleavage amounted to 0.37.

Take G9C U72G: the self-cleavage was 0.09. For G9C U60C, the self-cleavage was determined as 0.25. On to G9C U60A, for which the self-cleavage turned out to be 0.15. G9C A45U: the self-cleavage came out at 0.13.

With G9C A45C, the self-cleavage stood at 0.25. As for G9A G42A, the self-cleavage was determined as 0.3. Regarding G8A U76A, the self-cleavage is 0.49. To G9A G52A belongs 0.24; to G9A G52C, 0.13. For the variant G8U C40U, the self-cleavage worked out at 0.11. Take G8A U51G: the self-cleavage came out at 0.09.

On to G8U A21U, for which the self-cleavage came out at 0.17. The figure for G9C A18G is 0.16; for G9C A18U it is 0.08.

For G8U C79U, the self-cleavage was found to be 0.04.

As for G8U C12U, the self-cleavage was determined as 0.3.

For the variant G8C C27A, the self-cleavage amounted to 0.19. With G8U U41C, the self-cleavage turned out to be 0.12. In the case of G8U U41A, the self-cleavage worked out at 0.19. As to G8U U41G, the self-cleavage is 0.39. Take G9C U67C: the self-cleavage is 0.11. To G9A C68U belongs 0.27; to G8C A13U, 0.16; to G8U G33U, 0.1.

In the case of G8U G33A, the self-cleavage is 0.08. As for G9U C14U, the self-cleavage came to 0.11.

Regarding G9A G55C, the self-cleavage came out at 0.24. As for G9A C27A, the self-cleavage amounted to 0.04. Regarding G9U A21G, the self-cleavage turned out to be 0.22. For the variant G9U A64U, the self-cleavage was determined as 0.06. Regarding G9U A64G, the self-cleavage is 0.15. The figure for G9A U60C is 0.14. G9A U60A: the self-cleavage was 0.22.

Regarding G8C U76C, the self-cleavage was found to be 0.4. For G9A C38A, the self-cleavage came to 0.25. To G8U U25C belongs 0.12. On to G8C U60A, for which the self-cleavage was determined as 0.14. Consider G8C U60C, for which the self-cleavage was found to be 0.24. With G9A U25C, the self-cleavage is 0.21. As to G9A U25A, the self-cleavage turned out to be 0.2. Turning to G8U U51C, the self-cleavage worked out at 0.08. For the variant G8U U51A, the self-cleavage amounted to 0.08. Take G9A A13U: the self-cleavage was 0.28. In the case of G9A A13G, the self-cleavage was found to be 0.3. Take G8U G53A: the self-cleavage amounted to 0.2. G8U G53U: the self-cleavage stood at 0.12. For the variant G9U A75U, the self-cleavage is 0.17. For the variant G9U A75G, the self-cleavage is 0.13. In the case of G8C U26C, the self-cleavage came to 0.08. Regarding G9C A56G, the self-cleavage worked out at 0.24. Turning to G8U U26C, the self-cleavage came out at 0.14. G8U U26A: the self-cleavage stood at 0.07. The figure for G8C C38U is 0.07; for G9U A65G it is 0.17; for G8U G9A it is 0.33.

For the variant G8C A15C, the self-cleavage is 0.29. The figure for G9C A47G is 0.21; for G9A A18G it is 0.21.

For G9A A18U, the self-cleavage is 0.14. To G9A C40U belongs 0.08. Take G9A U69G: the self-cleavage was 0.2. Take G9A U69A: the self-cleavage was 0.21.

Regarding G9A U69C, the self-cleavage was 0.1.

In the case of G8U G46U, the self-cleavage was found to be 0.19.

On to G9A G33A, for which the self-cleavage is 0.08. For the variant G8U C37U, the self-cleavage was found to be 0.17. The figure for G9A U78A is 0.44; for G9A U78C it is 0.25; for G8U A45G it is 0.14. G9A G30A: the self-cleavage came out at 0.18. In the case of G9A G30U, the self-cleavage amounted to 0.06.

As for G8A U60A, the self-cleavage came to 0.18.

Take G8A U60C: the self-cleavage turned out to be 0.23. The figure for G8U G24U is 0.13; for G8U G24A it is 0.16; for G9A U51A it is 0.27. Consider G9A U51C, for which the self-cleavage came out at 0.37. On to G9A A15U, for which the self-cleavage was found to be 0.15. Turning to G9A A15G, the self-cleavage was determined as 0.3.
